T1: recombinant human CD123-Fc (human, UniProt P26951 19-305, limits assumed)
T1 construct: Panning and sorting antigen; not shown: Fc part
T1 sequence (looked up): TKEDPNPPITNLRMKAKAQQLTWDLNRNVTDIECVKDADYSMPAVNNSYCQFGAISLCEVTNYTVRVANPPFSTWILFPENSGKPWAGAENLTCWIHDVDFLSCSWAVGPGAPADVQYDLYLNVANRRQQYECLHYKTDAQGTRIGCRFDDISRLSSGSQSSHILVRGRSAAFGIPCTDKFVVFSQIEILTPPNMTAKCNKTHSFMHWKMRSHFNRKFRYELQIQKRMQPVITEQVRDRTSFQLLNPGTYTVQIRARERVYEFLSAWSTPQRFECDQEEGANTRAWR

B1: CD123 hScFv binder M12305 (scFv)
scFv: QVQLVQSGAEVKKPGSSVKVSCKASGGTFSSYAISWVRQAPGQGLEWMGGIIPIFGTANYAQKFQGRVTITTDESTSTAYMELSSLRSEDTAVYYCARRGWGGFSSGSAFDIWGQGTMVTVSSGGGGSGGGGSGGGGSNFMLTQPHSVSESPGNTVTISCTGSSGTIGSNFVQWYQQSPGRAPTLLIYEDTKRPSGVPPRFAGSVDSSSNSASLTISGLKTEDEADYYCQSYDSSNWVFGGGTKLTVLG
B2: CD123 hScFv binder M12316 (scFv)
scFv: EVQLVESGGGLVQPGGSLRLSCAASGFTFSSYAMHWVRQAPGKGLEWVSSISSSSSYIYYADSVKGRFTISRDNSKNTLYLQMNSLRAEDTAVYYCARDWDDAFDIWGQGTTVTVSSGGGGSGGGGSGGGGSDIQMTQSPSSLSASVGDRVTITCQASQDISNYLNWYQQKPGKAPKLLIYDASNLETGVPSRFSGSGSGTDFTFTISSLQPEDIATYYCQQYDNLPLTFGGGTKLEIK
B3: CD123 hScFv binder M12309 (scFv)
scFv: EVQLVQSGAEVKKPGATVKISCKVSGYTFTDYYMHWVQQAPGKGLEWIGLVDPEDGETIYAEKFQGRVTITADTSTDTAYMELSSLRSEDTAVYYCATAPLGEVGAAVDYWGQGTLVTVSSGGGGSGGGGSGGGGSHVILTQPPSVSAAPGQEVSISCSGSDANIGTNLVSWYQHVPGTAPKLLIYENSKRPSGIPARFSSSQSGTSATLAISGLQSGDEAIYYCLTWDRTLSGKIFGGGTQLTVLG
B4: CD123 hScFv binder M12308 (scFv)
scFv: EVQLVETGAEVKNPGSSVKVSCKASGGTLSNYAISWVRQAPGKGLEWMGGIIPIFGTANYAQKFQGRVTITADESTSTAYMELSSLRSEDTAVYYCARRSSWYPEGCFQHWGQGTLVTVSSGGGGSGGGGSGGGGSDIQLTQSPSSLSASTGDRVTITCRASQGISSYLAWYQQKPGKAPKLLIYAASTLQSGVPSRFSGSGSGTDFTLTISCLQSEDFATYYCQQYYSYPLTFGGGTKLDIK
B5: CD123 hScFv binder M12306 (scFv)
scFv: EVQLVQSGSELKKPGASVKVSCKASGGTFSSYAISWVRQAPGQGLEWMGGIIPIFGTANYAQKFQGRVTITADESTSTAYMELSSLRSEDTAVYYCASTARRGWDTAGPLDYWGQGTLVTVSSGGGGSGGGGSGGGGSDIQMTQSPSSLSASVGDRVTIACRASQTISRYLNWYQQKPGKAPKLLIYAASSLQSGVSSRFSGSGSGTEFTLTISSLQPEDFATYFCQQTYSPPITFGQGTRLEIK
B6: CD123 hScFv binder M12303 (scFv)
scFv: EVQLVETGAEVKKPGASVKVSCKASGYTFTTYYVHWVRQAPGQGLEWMGIINPSGGSTSYAQKFQGRVTMTRDTSTSTVYMELSSLRSEDTAVYYCARDGGLGGYEAWGQGTLVTVSSGGGGSGGGGSGGGGSDIQLTQSPSALSASAGDRVTITCQASQDISNYLNWYQQKPGKAPKLLIYDASNLERGVPSRFSGSGSGTEFTFTISSLQPEDIATYYCQQYDNLPITFGQGTRLEIK
B7: CD123 hScFv binder M12313 (scFv)
scFv: EVQLVQSGAEVKKPGSSVKVSCKASGGTFSSYAISWVRQAPGQGLEWMGGIIPIFGTANYAQKFQGRVTITADESTSTAYMELSSLRSEDTAVYYCASQKGGGWSIDAFDIWGQGTMVTVSSGGGGSGGGGSGGGGSQSVLTQPPSVSAASGQRVTISCSGSSSNIGNNYASWYQQLPGMAPKLLIYEDNKRPSGISDRFSGSQSGTSASLAITGLQAEDEADYYCQSYDSSLSGDVVFGGGTKLTVLG
B8: CD123 hScFv binder M12315 (scFv)
scFv: QVQLQQWGAGLLKPSETLSLTCAVYGGSFSGYYWSWIRQPPGKGLEWIGEINHSGSTNYNPSLKSRVTISVDTSKNQFSLKLSSVTAADTAVYYCARGQVKYSSSLGYWGQGTLVTVSSGGGGSGGGGSGGGGSQSVLTQPPSVSAAPGQKVTISCSGSSSNIGNNFVSWYQQLPGTAPKLLIYEDNKRPSGIPDRFSGSRSGTSATLGITGLQTGDEADYYCGTWDSSLGAWVFGGGTKLTVLG
B9: CD123 hScFv binder M12317 (scFv)
scFv: QVQLVETGGGLVKPGGSLRLSCAASGFTFSSYSMNWVRQAPGKGLEWVSSISSSSSYIYYADSVKGRFTISRDNAKNSLYLQMNSLRAEDTAVYYCARDGDFWSGAIDYWGQGTLVTVSSGGGGSGGGGSGGGGSDIQLTQSPSSLSASVGDRVTITCQASQDISNYLNWYQQKPGKAPKLLIYDASNLETGVPSRFSGSGSGTDFTFTISSLQPEDIATYYCQQYDNLPLFGGGTKLEIK
B10: CD123 hScFv binder M12311 (scFv)
scFv: EVQLVQSGAEVKKPGSSVKVSCKASGGTFSSYAISWVRQAPGQGLEWMGGIIPIFGTANYAQKFQGRVTITADESTSTAYMELSSLRSEDTAVYYCARARLGGAFDIWGQGTMVTVSSGGGGSGGGGSGGGGSQSVLTQPPSVSAAPGQKVTISCSGGSSNIGNHYVSWYQQLPGAAPKLLIYDDNKRPSGIPDRFSGSRSGTSATLGITGLQSGDEADYYCGTWDSSLAAHVFGTGTKVTVLG
B11: CD123 hScFv binder M12318 (scFv)
scFv: EVQLVQSGGGVVQPGRSLRLSCAASGFTFSSYSMNWVRQAPGKGLEWVSSISSSSSYIYYADSVKGRFTISRDNAKNTLYLQMNSLRAEDTAVYYCARDNWGSLDYWGQGTLVTVSSGGGGSGGGGSGGGGSDIQMTQSPSSLSASVGDRVTITCQASQDISNYLNWYQQKPGKAPKLLIYDASNLETGVPSRFSGSGSGTDFTFTISSLQPEDIATYYCQQYDNLPHMYTFGQGTKLEIK
B12: CD123 hScFv binder M12314 (scFv)
scFv: EVQLVQSGAEVKKPGSSVKVSCKASGGTFSSYAISWVRQAPGQGLEWMGGIIPIFGTANYAQKFQGRVTITADESTSTAYMELSSLRSEDTAVYYCARVGCSGGSCYPDYWGQGTLVTVSSGGGGSGGGGSGGGGSEIVLTQSPSSLSASVGDRVTITCQASQDISNYLNWYQQKPGKAPKLLIYDASNLETGVPSRFSGSGSGTDFTFTISSLQPEDIATYYCQQYDNLPLTFGGGTKLDIK

target: T1, recombinant human CD123-Fc; experiment: yeast display; 3 rounds of MACS and a FACS sort (top 1%) with CD123-Fc; clone sequenced from the sorted pool, not tested singly
Method: A large yeast display human naive single chain variable fragment (ScFv) antibody library was used to isolate anti-human CD123 antibodies described herein. The library was constructed using a collection of human antibody gene repertoires from more than 60 individuals. Three rounds of magnetic-activated cell sorting (MACS) were performed to enrich human ScFv binders to the recombinant human CD123-Fc. For the first round of yeast library panning, the yeast display ScFv library (5×10¹⁰ cells) was incubated with 5 μg/mL CD123-Fc in 15 ml PBSA (consisting of 0.1% Bovine Serum Albumin (BSA) in Dulbecco's phosphate-buffered saline (PBS) buffer), at room temperature on a rotator for 1.5 hours. After two times washing with 25 ml PBSA, the yeast library mix was incubated with 100 μL Protein G microbeads (Miltenyi Biotec) at room temperature on a rotator for 30 minutes. After one time washing, the library mix was resuspended in 50 ml of PBSA and loaded onto the MACS cell separation column (LS column). After three times washing with 10 ml PBSA. […] These eluted yeast cells were combined and then resuspended into 50 ml SDCAA medium (20 g D-glucose, 6.7 g BD Difco™ Yeast Nitrogen Base without Amino Acids, 5 g Bacto™ Casamino Acids, 5.4 g Na2·HPO4, and 8.56 g NaH2PO4·H2O in 1 L water) and amplified with shaking at 225 rpm at 30° C. for 20 hours. The amplified pool was then induced in SGCAA medium (consisting of the same composition of SDCAA medium, but containing galactose instead of glucose), with shaking at 225 rpm at 30° C. for another 16 hours and used for next round of panning. The same process was repeated two more times to enrich the CD123-Fc specific binders.
To further enrich the binders with higher affinity and better specificity, FACS based sorting was employed to isolate the strongest binders from the pool. The induced pool was incubated with 1 μg/ml of CD123-Fc at room temperature for 1 hour and then stained with Anti-c-Myc-Alexa 488 and Goat anti-Hu-Fc PE conjugates, the top 1% of the pool with the highest PE versus FITC signal was gated and sorted. The sorted pool was amplified in SDCAA medium and yeast plasmid DNA was extracted and transformed into bacterial for single clone DNA sequencing. 40 random clones were sequenced and 36 unique sequences were identified.

Binding result, binds:
B1
B2
B3
B4
B5
B6
B7
B8
B9
B10
B11
B12

Source: patent US20240309102A1 (LENTIGEN TECHNOLOGY, published 2024)
